The EC50 is the midpoint of the concentration-response curve. A higher EC50 goes with lower potency in that assay.

This test deals with T1, Peptide 13 (TSESGELHGLTTE) (also: biotinylated).
T1 construct: Lies on the D-strand of TTR
T1 peptide: TSESGELHGLTTE
In words: indirect ELISA: biotinylated peptide 13 (TSESGELHGLTTE) captured on NeutrAvidin, antibody titrated, HRP secondary antibody, TMB, % max. binding, the axis is Log10 [Antibody] nM.

Ends that are not written are not given here.

B1: MFD108 (antibody, V domains shown)
VH: EVQLVESGGDLVKPGGSLKLSCAASGFTFSNYGMSWVRQTPDKRLEWVATITSGGSYTYYPDSVKGRFTISRDNAKNTLYLQMSSLKSEDTAMYYCARDGTAWFAYWGQGTLVTVSA
VL: DIQMTQTTSSLSASLGDRVTISCRASQDISNYLNWYQQKPDGTVKLLIYYTSRLHSGVPSRFSGSGSGTDYSLTISNLEEEDIATYFCQQGNTLRTFGGGTKLEIK
As for B1, the response was half-maximal at 0.247 nM (EC50).

The values are drawn from patent US20160039916A1 (MISFOLDING DIAGNOSTICS, published 2016).
